Experimental data reported in patent US20130261012A1 (published 2013).

Target: S3
Assay: apparent affinity of recombinant chimeric mAb, cell binding

B1: FZD10 (receptor)
chain: ISSMDMERPGDGKCQPIEIPMCKDIGYNMTRMPNLMGHENQREAAIQLHEFAPLVEYGCHGHLRFFLCSLYAPMCTEQVSTPIPACRVMCEQARLKCSPIMEQFNFKWPDSLDCRKLPNKNDPNYLCMEAPNNGSDEPTRGSGLFPPLFRPQRPHSAQEHPLKDGGPGRGGCDNPGKFHHVEKSASCAPLCTPGVDVYWSREDKRFAVVWLAIWAVLCFFSSAFTVLTFLIDPARFRYPERPIIFLSMCYCVYSVGYLIRLFAGAESIACDRDSGQLYVIQEGLESTGCTLVFLVLYYFGMASSLWWVVLTLTWFLAAGKKWGHEAIEANSSYFHLAAWAIPAVKTILILVMRRVAGDELTGVCYVGSMDVNALTGFVLIPLACYLVIGTSFILSGFVALFHIRRVMKTGGENTDKLEKLMVRIGLFSVLYTVPATCVIACYFYERLNMDYWKILAAQHKCKMNNQTKTLDCLMAASIPAVEIFMVKIFMLLVVGITSGMWIWTSKTLQSWQQVCSRRLKKKSRRKPASVITSGGIYKKAQHPQKTHHGKYEIPAQSPTCV
  Kd: > 40 nM
